The results in this text go back to US20110070245.

For the data set, the target named is IMP-1 (IGF2BP1) (Homo sapiens) (UniProt Q9NZI8). The data set is described as follows: pulldown. The settings on record: A549 cells.
Chain of IMP-1 (IGF2BP1) (Homo sapiens) (Q9NZI8 whole entry): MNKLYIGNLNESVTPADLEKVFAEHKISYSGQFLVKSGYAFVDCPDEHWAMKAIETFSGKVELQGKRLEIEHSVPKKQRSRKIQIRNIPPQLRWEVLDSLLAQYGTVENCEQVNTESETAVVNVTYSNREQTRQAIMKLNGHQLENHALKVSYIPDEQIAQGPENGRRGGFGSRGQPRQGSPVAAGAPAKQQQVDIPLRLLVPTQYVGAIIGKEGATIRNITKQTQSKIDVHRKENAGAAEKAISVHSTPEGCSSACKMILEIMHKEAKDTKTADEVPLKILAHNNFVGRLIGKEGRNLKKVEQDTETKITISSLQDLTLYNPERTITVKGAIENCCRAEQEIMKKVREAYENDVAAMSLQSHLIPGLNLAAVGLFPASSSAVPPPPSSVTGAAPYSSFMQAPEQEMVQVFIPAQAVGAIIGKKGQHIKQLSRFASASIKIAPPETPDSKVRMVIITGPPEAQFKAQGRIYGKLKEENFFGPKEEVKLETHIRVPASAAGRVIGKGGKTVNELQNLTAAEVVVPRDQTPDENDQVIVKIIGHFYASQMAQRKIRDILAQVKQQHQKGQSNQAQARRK

AMIGO2 mRNA had a binding signal (fold IP/total RNA) (RIP-microarray) of 5.65.

In turn, C17orf39 mRNA returned a binding signal (fold IP/total RNA) (RIP-microarray) of 2.57. Same read-out and setting: the same measure for C20orf142 mRNA: 3.21. Same read-out and setting: the same measure for CPSF6 mRNA: 2.24.

For the substance CRYAA mRNA, under “RIP-microarray”, the binding signal (fold IP/total RNA) is 9.77. On the same count and under the same terms, the same measure for DDX1 mRNA: 34.2; for HMBS mRNA: 2.48; for L3MBTL3 mRNA: 3.19. Still for that read-out and setting: the same measure for LASP1 mRNA: 2.66; for LPGAT1 mRNA: 3.14; for MGC27277 mRNA: 3.43.

As for PDF mRNA, for the setting “RIP-microarray”, the binding signal (fold IP/total RNA) was found to be 4.18.

PTP4A1 mRNA displayed a binding signal (fold IP/total RNA) (RIP-microarray) of 3.

RAN mRNA returned a binding signal (fold IP/total RNA) (RIP-microarray) of 81.9. On to RNF20 mRNA, for which the binding signal (fold IP/total RNA) (RIP-microarray) was 2.01. On to SMAD3 mRNA, for which the binding signal (fold IP/total RNA) (RNA immunoprecipitation (FLAG then HA) and cDNA microarray) amounted to 720. SYNGR3 mRNA showed a binding signal (fold IP/total RNA) (RIP-microarray) of 12.3. For the substance SYNJ2 mRNA, the binding signal (fold IP/total RNA) (RIP-microarray) was 2.56.

With UBE2S mRNA, the binding signal (fold IP/total RNA) (RIP-microarray) stood at 6.78. Under “RIP-microarray”, YTHDF1 mRNA had a binding signal (fold IP/total RNA) of 7.99.
